According to article PMC2691842 (Nucleic Acids Research, 2009):

Molecular target: the molecule itself
Experiment: AUC

B1: C.Esp1396I controller (C) protein (natural protein, UniProt Q8GGH0 1-79, looked up)
chain: MESFLLSKVSFVIKKIRLEKGMTQEDLAYKSNLDRTYISGIERNSRNLTIKSLELIMKGLEVSDVVFFEMLIKEILKHD
For B1, the Kd was ~0.6 µM and the “stoichiometry N” value was 2.
